Test results reported in the supplement of paper PMC11780869.

Test system: Bacillus subtilis
Experiment: cleaved RNA product abundance (RNA/gDNA barcode ratio) relative to median wild-type variant (ratio to wild type); higher = more accumulation of the downstream cleavage product
Details: cleavage site: cggR-gapA (positions -7 to +36 mutated)
Protocol: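 MPRA in B. subtilis. Mutagenized RNase Y cleavage-site regions (9% mutation rate) were inserted into a barcoded reporter mRNA (truncated aprE or tetM). Cells were grown in LB at 37°C to OD600 0.3. The cleaved RNA isoform was gel-purified and its barcodes counted; the RNA:gDNA barcode ratio was normalised to the median wild-type variant, and the median over barcodes is reported per variant. The printed sequence is the variable window only; the reporter flanks are not printed.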

[1] = experiment (reporter, strain, medium): exp 2b: truncated aprE reporter, strain BJT200
[2] = experiment (reporter, strain, medium): exp 4a: truncated aprE reporter, strain BJT201 with 2% xylose (RNase J1 expressed)

Sequence	cleaved RNA product abundance [1]	cleaved RNA product abundance [2]	cleaved RNA product abundance (experiment (reporter, strain, medium): exp 6: tetM reporter, strain 168)
ACAGACGAAGGAGCCGCAAAGAAGTGATTAAGAGATGAATAATCCCTCAATATAAATATCTCTCACTTATTTAAA	0.0989	0.133	
ACAGACGAAGGAGCCGCAAAGAAGTGATTAAGCGATGAATAATCCCTCAATATAAATATCTCTCACTTATTTAAA	0.115	0.131	
ACAGACGAAGGAGCCGCAAAGAAGTGATTAAGGAATGAATAATCCCTCAATATAAATATCTCTCACTTATTTAAA		0.115	
ACAGACGAAGGAGCCGCAAAGAAGTGATTAAGGCATGAATAATCCCTCAATATAAATATCTCTCACTTATTTAAA	0.11		
ACAGACGAAGGAGCCGCAAAGAAGTGATTAAGGGACGAATAATCCCTCAATATAAATATCTCTCACTTATTTAAA		0.322	
ACAGACGAAGGAGCCGCAAAGAAGTGATTAAGGGATAAATAATCCCTCAATATAAATATCTCTCACTTATTTAAA		0.246	
ACAGACGAAGGAGCCGCAAAGAAGTGATTAAGGGATGAAAAATCCCTCAATATAAATATCTCTCACTTATTTAAA		0.399	
ACAGACGAAGGAGCCGCAAAGAAGTGATTAAGGGATGAATAACCCCTCAATATAAATATCTCTCACTTATTTAAA		0.163	
ACAGACGAAGGAGCCGCAAAGAAGTGATTAAGGGATGAATAATACCTCAATATAAATATCTCTCACTTATTTAAA	0.105	0.0889	
ACAGACGAAGGAGCCGCAAAGAAGTGATTAAGGGATGAATAATCCATCAATATAAATATCTCTCACTTATTTAAA	0.27	0.257	
ACAGACGAAGGAGCCGCAAAGAAGTGATTAAGGGATGAATAATCCCACAATATAAATATCTCTCACTTATTTAAA		0.226	
ACAGACGAAGGAGCCGCAAAGAAGTGATTAAGGGATGAATAATCCCGCAATATAAATATCTCTCACTTATTTAAA		0.124	
ACAGACGAAGGAGCCGCAAAGAAGTGATTAAGGGATGAATAATCCCTAAATATAAATATCTCTCACTTATTTAAA		0.388	
ACAGACGAAGGAGCCGCAAAGAAGTGATTAAGGGATGAATAATCCCTCAAAATAAATATCTCTCACTTATTTAAA		0.258	
ACAGACGAAGGAGCCGCAAAGAAGTGATTAAGGGATGAATAATCCCTCAACATAAATATCTCTCACTTATTTAAA	0.293		
ACAGACGAAGGAGCCGCAAAGAAGTGATTAAGGGATGAATAATCCCTCAATATAAAAATCTCTCACTTATTTAAA		0.728	
ACAGACGAAGGAGCCGCAAAGAAGTGATTAAGGGATGAATAATCCCTCAATATAAATAACTCTCACTTATTTAAA		0.522	
ACAGACGAAGGAGCCGCAAAGAAGTGATTAAGGGATGAATAATCCCTCAATATAAATATCTCTCACTTATTTAAA	0.318	0.391	0.274
ACAGACGAAGGAGCCGCAAAGAAGTGATTAAGGGATGAATAATCCCTCACTATAAATATCTCTCACTTATTTAAA		0.0759	
ACAGACGAAGGAGCCGCAAAGAAGTGATTAAGGGATGAATAATCCCTCTATATAAATATCTCTCACTTATTTAAA		0.377	
ACAGACGAAGGAGCCGCAAAGAAGTGATTAAGGGATGAATAATCCCTTAATATAAATATCTCTCACTTATTTAAA		0.74	
ACAGACGAAGGAGCCGCAAAGAAGTGATTAAGGGATGAATAATCCTTCAATATAAATATCTCTCACTTATTTAAA	0.337	0.342	
ACAGACGAAGGAGCCGCAAAGAAGTGATTAAGGGATGAATAATCGCTCAATATAAATATCTCTCACTTATTTAAA		0.0548	

Sequence	cleaved RNA product abundance [1]	cleaved RNA product abundance [2]	cleaved RNA product abundance (experiment (reporter, strain, medium): exp 6: tetM reporter, strain 168)
ACAGACGAAGGAGCCGCAAAGAAGTGATTAAGGGATGAATAATCTCTCAATATAAATATCTCTCACTTATTTAAA		0.306	
ACAGACGAAGGAGCCGCAAAGAAGTGATTAAGGGATGAATACTCCCTCAATATAAATATCTCTCACTTATTTAAA		0.354	
ACAGACGAAGGAGCCGCAAAGAAGTGATTAAGGGATGAATAGTCCCTCAATATAAATATCTCTCACTTATTTAAA	0.184	0.274	
ACAGACGAAGGAGCCGCAAAGAAGTGATTAAGGGATGAATTATCCCTCAATATAAATATCTCTCACTTATTTAAA		0.366	
ACAGACGAAGGAGCCGCAAAGAAGTGATTAAGGGATGAGTAATCCCTCAATATAAATATCTCTCACTTATTTAAA		0.285	
ACAGACGAAGGAGCCGCAAAGAAGTGATTAAGGGATGCATAATCCCTCAATATAAATATCTCTCACTTATTTAAA		0.51	
ACAGACGAAGGAGCCGCAAAGAAGTGATTAAGGGATTAATAATCCCTCAATATAAATATCTCTCACTTATTTAAA	0.459	0.325	
ACAGACGAAGGAGCCGCAAAGAAGTGATTAAGGGCTGAATAATCCCTCAATATAAATATCTCTCACTTATTTAAA		0.309	
ACAGACGAAGGAGCCGCAAAGAAGTGATTAAGGGTTGAATAATCCCTCAATATAAATATCTCTCACTTATTTAAA	0.15	0.263	
ACAGACGAAGGAGCCGCAAAGAAGTGATTAAGGTATGAATAATCCCTCAATATAAATATCTCTCACTTATTTAAA	0.0827	0.113	
ACAGACGAAGGAGCCGCAAAGAAGTGATTAAGTGATGAATAATCCCTCAATATAAATATCTCTCACTTATTTAAA	0.114	0.0876	
ACAGACGAAGGAGCCGCAAAGAAGTGATTAATGGATGAATAATCCCTCAATATAAATATCTCTCACTTATTTAAA	0.0996	0.108	
ACAGACGAAGGAGCCGCAAAGAAGTGATTACGGGATGAATAATCCCTCAATATAAATATCTCTCACTTATTTAAA		0.396	
ACAGACGAAGGAGCCGCAAAGAAGTGATTTAGGGATGAATAATCCCTCAATATAAATATCTCTCACTTATTTAAA		0.386	
ACAGACGAAGGAGCCGCAAAGAAGTTAAAAAAGGATGAATAATCCCTCAATATAAATATCTCTCACTTATTTAAA		0.227	
ACAGACGAAGGAGCCGCAAAGAAGTTAAAAAGGGATGAATAATCCCTCAATATAAATATCTCTCACTTATTTAAA	0.268	0.392	
ACAGACGAAGGAGCCGCAAAGAAGTTAATAAAGGATGAATAATCCCTCAATATAAATATCTCTCACTTATTTAAA	0.143	0.215	
ACAGACGAAGGAGCCGCAAAGAAGTTAATAACGGATGAATAATCCCTCAATATAAATATCTCTCACTTATTTAAA		0.177	
ACAGACGAAGGAGCCGCAAAGAAGTTAATAAGAGATGAATAATCCCTCAATATAAATATCTCTCACTTATTTAAA		0.133	
ACAGACGAAGGAGCCGCAAAGAAGTTAATAAGCGATGAATAATCCCTCAATATAAATATCTCTCACTTATTTAAA	0.0808	0.104	
ACAGACGAAGGAGCCGCAAAGAAGTTAATAAGGAATGAATAATCCCTCAATATAAATATCTCTCACTTATTTAAA	0.103	0.165	
ACAGACGAAGGAGCCGCAAAGAAGTTAATAAGGCATGAATAATCCCTCAATATAAATATCTCTCACTTATTTAAA	0.0718	0.104	
